Biological target: T1, HER2-hFc (UniProt P04626 23-652)
T1 construct: Immobilized on a CM5 sensor chip; also called HER2 immobilized on a sensor chip; not shown: hFc part
Assay: SPR (Biacore T200), HER2-hFc immobilized on CM5 chip, antibody flowed at 1-16 nmol/l
Procedure: It was examined using a surface plasmon resonance method whether the Herceptin-Okt3 bispecific antibody obtained in Example 1(6) above could maintain a binding to Her2. Specifically: the Herceptin-Okt3 bispecific antibody was allowed to flow over HER2 immobilized on a sensor chip at a predetermined flow rate, and measurement was conducted using an intermolecular interaction analyzer. The Herceptin-Okt3 bispecific antibody purified in Example 1(6) above was diluted with 1×PBS-Tween20 to 1 nmol/l. 2 nmol/l. 4 nmol/l. 8 nmol/l, and 16 nmol/l. After the dilution, a surface plasmon resonance measuring apparatus (Biacore T200, manufactured by Cytiva) was used to measure the binding strength by allowing the diluted solution containing the Herceptin-Okt3 bispecific antibody to flow over HER2-hFc immobilized on a CM5 sensor chip (manufactured by GE Healthcare).
In FIG. 7, the horizontal axis indicates the time (minute), and the vertical axis indicates the response unit (RU).

B1: Herceptin-OKT3 bispecific antibody (bispecific antibody)
heavy 1: not shown
light 1: DIQMTQSPSSLSASVGDRVTITCSASSSVSYMNWYQQTPGKAPKRWIYDTSKLASGVPSRFSGSGSGTDYTFTISSLQPEDIATYYCQQWSSNPFTFGQGTKLQITRTVA
heavy 2: not shown
light 2: not shown
B1 gave a Kd of 2.25 nM.

Reference: US20260055207A1 (NATIONAL UNIVERSITY CORPORATION YAMAGATA UNIVERSITY, published 2026)
